Experimental data from article PMC3194040.

Molecular target: Recombinant full-length His6-tagged DEG7 (Ser206Ala) (Arabidopsis thaliana)
Assay: SEC

- stoichiometry N: 3
Substance: Recombinant full-length His6-tagged DEG7 (Ser206Ala) (enzyme)
